B1: MSLN34 phage clone (scFv displayed on phage, KBIO human synthetic scFv phage display library KscFv-I) (scFv, not shown: large carriers; small tags and cut ends)
scFv: EVQLVESGGGLVQPGGSLRLSCAASGFTFSDYGMHWVRQAPGKGLEWVSSIYGSGGHTGYADSVKGRFTISRDNSKNTLYLQMNSLRAEDTAVYYCAKQHAYRYSYAFDVWGQGTLVTVSSGGGGSGGGGSGGGGSDIQMTQSPSSLSASVGDRVTITCRASQSISNWLNWYQQKPGKAPKLLIYATSSLQSGVPSRFSGSGSGTDFTLTISSLQPEDFATYYCQQSYSFPFTFGQGTKVEIK
modifications: displayed on M13 phage
B2: MSLN37 phage clone (scFv displayed on phage, KBIO human synthetic scFv phage display library KscFv-I) (scFv, V domains shown)
VH: EVQLVESGGGLVQPGGSLRLSCAASGFTFSSYAMHWVRQAPGKGLEWVSGISGSGGTTYYADSVKGRFTISRDNSKNTLYLQMNSLRAEDTAVYYCAKEVEGQSQEYFDIWGQGTLVTVSS
VL: DIQMTQSPSSLSASVGDRVTITCRASQSIANYLNWYQQKPGKAPKLLIYAASNLQSGVPSRFSGSGSGTDFTLTISSLQPEDFATYYCQQSYSFPYTFGQGTKVEIK
B3: anti-MSLN-scFv antibody MSLN34 (purified scFv from E. coli periplasm) (scFv, not shown: small tags and cut ends)
scFv: B1 scFv

How the values were obtained:
[1] = molecular target: mesothelin present on the cell membrane of mesothelin-expressing cancer cell lines (AsPC-1; OVCAR-3; NCI-H2052) (human) (UniProt Q13421); experiment: flow cytometry, phage clone on AsPC-1 cells, anti-M13-FITC
[2] = molecular target: mesothelin present on the cell membrane of mesothelin-expressing cancer cell lines (AsPC-1; OVCAR-3; NCI-H2052) (human) (UniProt Q13421); experiment: flow cytometry, phage clone on AsPC-1 cells against control K562 cells
[3] = molecular target: human mesothelin protein (MSLN, Acro Biosystems), conjugated to a histidine tag (human) (UniProt Q13421); experiment: ELISA, purified scFv on coated human mesothelin protein (1 ug/mL), anti-StrepMAB HRP

Binder | relative peak shift value [1] [%] | relative peak shift value [2] [%] | EC50 [3] [nM]
B1 | > 5 | 16.2 | –
B2 | > 5 | 5.9 | –
B3 | – | – | 83

Source: patent publication US20230151082A1
